Here are results for two molecules from PMC10388305, “Synthesis and Evaluation of a Monomethyl Auristatin E—Integrin αvβ6 Binding Peptide–Drug Conjugate for Tumor Targeted Drug Delivery” (Journal of Medicinal Chemistry, 2023).

The subject of series [1] is glioblastoma U87MG xenograft mouse model. The following applies: cited from earlier work. An excerpt: (§1) Wang et al. described a similar radiolabeling approach with copper-64 to imag ...
Series [2] relates to MDA-MB-435 breast cancer xenograft tumor model. The following applies: copper-64 labeled; 4 h; cited from earlier work.
Source text: as §1

The subject of the next series is BxPC-3 cells. The series can be described thus: In vitro cell blocking assay, BxPC-3. The class given is cell-based. The note with it: 1 h, 37 °C, n = 3. Here is the method:
Cell binding and internalization assay. Binding and internalization were determined as previously described. In brief, bovine serum albumin (BSA, 0.5% w/v in PBS) was used to pretreat the assay tubes to prevent non-specific binding. Aliquots of [64Cu]2 or [ 64Cu]PDC-1 (≤1 μL, 7.4-18.5 KBq in 50 μL PBS, pH = 7.4) were added to a cell suspension (3.75 × 10 6 cells in 50 μL serum free medium), incubated for 1 h at 37 °C, and gently agitated every 5 minutes (n = 3/cell line/compound). The cells were pelleted by centrifugation at 200×g for 3 min and the supernatant collected. The cell pellet was washed with 0.5 mL serum free medium and the wash medium combined with the original supernatant. […] The fraction of bound radioactivity was determined with a γ-counter (by measuring cell pellet and combined supernatants). To determine the fraction of internalized radioactivity, the cells were re-pelleted, and re-suspended in acidic wash buffer (0.2 M sodium acetate, 0.5 M sodium chloride, pH = 2.5, 300 μL, 4 °C, 5 min) to release surface bound activity, followed by a wash with PBS (300 μL). The internalized fraction was determined with a γ-counter (cell pellet vs. radioactivity released into supernatant). A Wizard 1470 or Wizard 2 2470 automatic γ-counter (Perkin-Elmer, Waltham, MA) was used to measure radioactivity samples. […]
Figure S3. […] Data are expressed as mean ± SD. […]

Ends that are not written are not given here.

For “CDCRGDCFC (also: bicyclic or more (positions not given here)) [TNF-PDC]”, the Liver accumulation in series [1] (20 h, model not stated) is 16.22 ± 1.46 % ID/g. Also, the Tumor uptake in series [1] (copper-64 labeled, 4 h) is reported as 8.11 ± 0.88 % ID/g. Also, in series [2], the Tumor accumulation was 3.94 ± 0.48 % ID/g.
For the molecule `CC[C@H](C)[C@@H]([C@@H](CC(=O)N1CCC[C@H]1[C@H](OC)[C@@H](C)C(=O)N[C@H](C)[C@@H](O)c1ccccc1)OC)N(C)C(=O)[C@@H](NC(=O)[C@H](C(C)C)N(C)C(=O)OCc1ccc(NC(=O)[C@H](CCCNC(N)=O)NC(=O)[C@@H](NC(=O)CCOCCOCCNC(=O)CCN2C(=O)CC(SC[C@H](NC(=O)CN3CCN(CC(=O)O)CCN(CC(=O)O)CCN(CC(=O)O)CC3)C(=O)NCCOCCOCCOCCOCCOCCOCCOCCOCCOCCOCCOCCOCCOCCOCCOCCOCCOCCOCCOCCOCCOCCOCCOCCOCCOCCOCCOCCOCCC(=O)N[C@@H](CC(N)=O)C(=O)N[C@@H](C)C(=O)N[C@H](C(=O)N3CCC[C@H]3C(=O)N[C@@H](CC(N)=O)C(=O)N[C@@H](CC(C)C)C(=O)N[C@@H](CCCNC(=N)N)C(=O)NCC(=O)N[C@@H](CC(=O)O)C(=O)N[C@@H](CC(C)C)C(=O)N[C@@H](CCC(N)=O)C(=O)N[C@H](C(=O)N[C@@H](CC(C)C)C(=O)N[C@@H](C)C(=O)N[C@@H](CCC(N)=O)C(=O)N[C@@H](CCCNC(=N)N)C(=O)N[C@H](C(=O)N[C@@H](C)C(=O)N[C@@H](CCCNC(=N)N)C(=O)N[C@H](C(=O)NCCOCCOCCOCCOCCOCCOCCOCCOCCOCCOCCOCCOCCOCCOCCOCCOCCOCCOCCOCCOCCOCCOCCOCCOCCOCCOCCOCCOCCC(N)=O)[C@@H](C)O)C(C)C)C(C)C)C(C)C)C2=O)C(C)C)cc1)C(C)C` (stereo partly shown) [DOTA-PDC-1], in the series with BxPC-3 cells, the “Concentration of non-radioactive DOTA-PDC-1 required to block [64Cu]PDC-1 binding” value lay in the range of 80 to 160 nM.
